Measured values published in patent US20230183353A1.

Assays:
[1] = target: recombinant human FcγRIIIa (Phe) (human) (UniProt P08637); experiment: SPR (ProteOn), receptor immobilised on GLC chip by amine coupling, pH 7.4, 25 C
[2] = target: recombinant human FcγRIIIa (Val) (human) (UniProt P08637); experiment: as above
Sequence of recombinant human FcγRIIIa (Val) (human) (P08637 17-208 F176V limits assumed): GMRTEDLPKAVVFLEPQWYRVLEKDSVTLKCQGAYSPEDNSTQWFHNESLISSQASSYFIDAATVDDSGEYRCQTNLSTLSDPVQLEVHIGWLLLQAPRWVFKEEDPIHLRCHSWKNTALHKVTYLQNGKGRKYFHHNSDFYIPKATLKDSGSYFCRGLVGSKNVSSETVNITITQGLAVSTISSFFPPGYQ

Sequence of recombinant human FcγRIIIa (Phe) (human) (P08637 17-208 limits assumed): as the sequence (P08637 17-208 F176V limits assumed) above, with V160F counted along it

- Kd [1]: 2200 nM
- Kd [2]: 1280 nM
Substance: Control molecule representing human IgG1 control (lacking substitutions of the present invention)
